Data from patent US20230279079A1.

Key:
[1] = biological target: spike glycoprotein of wild type SARS-CoV-2 virus (SARS-CoV-2) (UniProt P0DTC2); test: cell-based or functional assay
RBD-VLP (SARS-CoV-2) = RBD-VLP (SARS-CoV-2) (UniProt P0DTC2)

Substance	Neutralization by PRNT EC50 [1]	IC50 (RBD-VLP (SARS-CoV-2))
CR3022 (antibody)	42 nM	–
VHH72-Fc	–	2 nM
